The results in this text go back to US20250026827A1 (Alector, published 2025).

The labels stand for the following.
T1: mouse SIRPβ1 on CHO cells (mouse)
T1 construct: Whole entry
T1 chain: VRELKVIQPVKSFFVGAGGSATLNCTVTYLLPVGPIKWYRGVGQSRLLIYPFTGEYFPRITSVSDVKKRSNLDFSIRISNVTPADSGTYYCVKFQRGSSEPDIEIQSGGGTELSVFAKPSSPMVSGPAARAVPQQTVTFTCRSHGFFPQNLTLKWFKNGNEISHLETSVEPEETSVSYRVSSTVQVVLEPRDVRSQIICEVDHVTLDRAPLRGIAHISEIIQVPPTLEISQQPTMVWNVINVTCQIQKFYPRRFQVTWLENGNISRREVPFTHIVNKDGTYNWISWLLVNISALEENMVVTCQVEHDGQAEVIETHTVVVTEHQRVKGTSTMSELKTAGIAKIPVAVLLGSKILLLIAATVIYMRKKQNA

T2: mouse SIRPα on cells (mouse, UniProt P97797 32-513)
T2 construct: whole, on cells
T2 sequence (looked up): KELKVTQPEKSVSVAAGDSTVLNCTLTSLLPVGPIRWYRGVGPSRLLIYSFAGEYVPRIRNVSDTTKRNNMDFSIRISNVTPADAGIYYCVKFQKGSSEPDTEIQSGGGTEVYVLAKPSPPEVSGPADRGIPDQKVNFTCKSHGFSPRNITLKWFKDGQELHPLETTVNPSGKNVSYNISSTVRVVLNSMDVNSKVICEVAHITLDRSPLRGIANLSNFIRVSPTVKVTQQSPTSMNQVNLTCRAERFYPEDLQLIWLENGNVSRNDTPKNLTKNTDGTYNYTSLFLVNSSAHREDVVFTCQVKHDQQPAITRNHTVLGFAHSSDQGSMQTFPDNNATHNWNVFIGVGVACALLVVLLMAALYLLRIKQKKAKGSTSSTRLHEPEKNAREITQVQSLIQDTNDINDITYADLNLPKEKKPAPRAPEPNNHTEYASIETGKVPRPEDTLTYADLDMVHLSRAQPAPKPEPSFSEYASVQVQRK

T3: mouse SIRPα D1-Fc (mouse, UniProt P97797 32-150, limits assumed)
T3 construct: domain: D1
T3 sequence (looked up): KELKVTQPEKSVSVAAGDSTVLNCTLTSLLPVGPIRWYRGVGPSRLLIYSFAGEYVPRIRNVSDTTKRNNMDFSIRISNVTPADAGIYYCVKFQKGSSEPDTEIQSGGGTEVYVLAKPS

B1: SB-16 (antibody, V domains shown)
VH: QVQLVQSGAEVKKPGSSVKVSCKASGGTFSSYAISWVRQAPGQGLEWMGSIIPIFGTANYAQKFQGRVTITADESTSTAYMELSSLRSEDTAVYYCARANYYDSSGYSGLDLWGRGTLVTVSS
VL: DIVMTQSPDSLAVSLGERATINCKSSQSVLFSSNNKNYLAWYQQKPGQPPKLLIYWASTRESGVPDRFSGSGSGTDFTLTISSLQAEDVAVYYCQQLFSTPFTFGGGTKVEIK
notes: IgG
B2: SB-24 (antibody, V domains shown)
VH: QVQLQESGPGLVKPSETLSLTCAVSGYSISSGYYWAWIRQPPGKGLEWIGSIYHSGSTYYNPSLKSRVTISVDTSKNQFSLKLSSVTAADTAVYYCARDRSRGYPVYGMDVWGQGTTVTVSS
VL: EIVMTQSPATLSVSPGERATLSCRASQSVSSNLAWYQQKPGQAPRLLIYGASTRATGIPARFSGSGSGTEFTLTISSLQSEDFAVYYCQQLNIHPWTFGGGTKVEIK
notes: IgG
B3: SB-18 (antibody, V domains shown)
VH: QVQLVQSGAEVKKPGSSVKVSCKASGGTFSSYAISWVRQAPGQGLEWMGGIIPIFGTANYAQKFQGRVTITADESTSTAYMELSSLRSEDTAVYYCARAKPRGDYGMDVWGQGTTVTVSS
VL: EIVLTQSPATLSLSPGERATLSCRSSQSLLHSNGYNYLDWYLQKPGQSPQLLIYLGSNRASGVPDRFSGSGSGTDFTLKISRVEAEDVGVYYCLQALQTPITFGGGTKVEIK
notes: IgG
B4: SB-22 (antibody, V domains shown)
VH: EVQLVESGGGLVQPGGSLRLSCAASGFTVSSNYMSWVRQAPGKGLEWVSVIYSDGSTYYADSVKGRFTISRDNSKNTLYLQMNSLRAEDTAVYYCARPTRYGYDRLGMDVWGQGTTVTVSS
VL: DIQMTQSPSSVSASVGDRVTITCRASQGISSWLAWYQQKPGKAPKLLIYAASNLQSGVPSRFSGSGSGTDFTLTISSLQPEDFATYYCQQGNSYPITFGGGTKVEIK
notes: IgG
B5: SB-25 (antibody, V domains shown)
VH: QVQLVQSGAEVKKPGSSVKVSCKASGGTFSSLAISWVRQAPGQGLEWMGGIIPIFGTANYAQKFQGRVTITADESTSTAYMELSSLRSEDTAVYYCARSGGDYSGYDYASGMDVWGQGTTVTVSS
VL: B4 VL with N53S, G91V, Y94F, I96W
notes: IgG
B6: SB-23 (antibody, V domains shown)
VH: QVQLVQSGAEVKKPGSSVKVSCKASGGTFSSYAISWVRQAPGQGLEWMGGIAPIFGTANYAQKFQGRVTITADESTSTAYMELSSLRSEDTAVYYCARTTYRDYYMDVWGKGTTVTVSS
VL: B4 VL with V11L, G28S, W32Y, A34N, N53S, G91A, N92Y, S93P, I96L
notes: IgG
B7: SB-27 (antibody, V domains shown)
VH: QVQLVQSGAEVKKPGSSVKVSCKASGGTFSSYAISWVRQAPGQGLEWMGGIIPIFGTANYAQKFQGRVTITADESTSTAYMELSSLRSEDTAVYYCARQDLGSSHWHFDLWGRGTLVTVSS
VL: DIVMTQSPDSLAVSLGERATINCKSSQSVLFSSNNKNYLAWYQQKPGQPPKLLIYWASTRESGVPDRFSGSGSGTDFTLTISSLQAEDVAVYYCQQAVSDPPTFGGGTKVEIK
notes: IgG
B8: SB-36 (antibody, V domains shown)
VH: QVQLVQSGAEVKKPGASVKVSCKASGYTFTSYYMHWVRQAPGQGLEWMGIINPSGGSTSYAQKFQGRVTMTRDTSTSTVYMELSSLRSEDTAVYYCAREGPEQLWYLDYWGQGTLVTVSS
VL: DIQMTQSPSSVSASVGDRVTITCRASQGISSWLAWYQQKPGKAPKLLIYAASSLQSGVPSRFSGSGSGTDFTLTISSLQPEDFATYYCQQAFSHRTFGGGTKVEIK
notes: IgG
B9: SB-7 (antibody, V domains shown)
VH: QVQLVQSGAEVKKPGSSVKVSCKASGGTFSSYAISWVRQAPGQGLEWMGGIIPIFGTASYAQKFQGRVTITADESTSTAYMELSSLRSEDTAVYYCARETRQDSAHYYGMDVWGQGTTVTVSS
VL: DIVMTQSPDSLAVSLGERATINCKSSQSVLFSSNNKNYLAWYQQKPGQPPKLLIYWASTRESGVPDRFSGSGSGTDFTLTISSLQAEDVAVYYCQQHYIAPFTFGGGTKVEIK
notes: IgG
B10: SB-20 (antibody, V domains shown)
VH: B9 VH with G50S, S59N, E99D, T100G, Q102E, D103Y, S104G, A105G
VL: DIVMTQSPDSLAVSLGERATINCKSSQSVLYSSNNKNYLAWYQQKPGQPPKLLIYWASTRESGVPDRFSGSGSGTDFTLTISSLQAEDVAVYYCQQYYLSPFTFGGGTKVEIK
notes: IgG

Positions count from the first letter of the chain named.
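For FOB in this document: antibodies tested at 1 µg/ml for 30 min on ice against receptor-expressing cells, detected with a PE-labelled secondary antibody, read as mean fluorescence intensity relative to background.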

For the first experiment, the target named is T4, human SIRPβ1 isoform 1 on cells (human, UniProt O00241 30-398).
T4 construct: On CHO cells (low level), on BWZ/BW5147.G.1.4 cells (reporter cells co-express human DAP12) or on primary human myeloid cells; also called huSIRPβ1; BWZ-huSIRPβ1
T4 sequence (O00241 30-398): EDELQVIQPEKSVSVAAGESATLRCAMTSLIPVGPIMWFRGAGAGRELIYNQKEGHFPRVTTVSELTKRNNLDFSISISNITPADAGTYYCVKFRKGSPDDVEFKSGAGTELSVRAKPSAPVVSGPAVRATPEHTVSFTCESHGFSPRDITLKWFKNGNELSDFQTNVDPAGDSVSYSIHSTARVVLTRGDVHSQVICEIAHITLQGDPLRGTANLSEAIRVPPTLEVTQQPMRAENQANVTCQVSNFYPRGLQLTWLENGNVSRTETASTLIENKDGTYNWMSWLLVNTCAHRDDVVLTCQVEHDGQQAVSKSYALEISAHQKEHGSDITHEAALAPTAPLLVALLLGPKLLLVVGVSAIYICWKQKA
Description: flow cytometry. Background: In flow cytometry, cells or beads pass a laser one at a time.
Take B1: the FOB amounted to 2 fold over background.

Regarding B2, the FOB was found to be 3.7 fold over background.

With B3, the FOB was 2.8 fold over background.

Take B4: the FOB is 1.4 fold over background.

On to B5, for which the FOB stood at 2.1 fold over background.

B6 came in with an FOB of 2.4 fold over background.

With B7, the FOB came to 3.9 fold over background.

The molecule B8 displayed an FOB of 1.7 fold over background.

Molecule B9 came in with an FOB of 3.7 fold over background.

On to B10, for which the FOB was found to be 2.6 fold over background.

Another experiment concerns the target T1, mouse SIRPβ1 on CHO cells. As to the kind of experiment: flow cytometry.
B1: the FOB was 1.5 fold over background.

In turn, B2 gave an FOB of 1.3 fold over background.

As for B3, the FOB is 1.2 fold over background.

Turning to B4, the FOB was 1.4 fold over background.

For the molecule B5, the FOB is 1.2 fold over background.

Regarding B6, the FOB was determined as 1.5 fold over background.

B7: the FOB was 1.3 fold over background.

For B8, the FOB was determined as 1.1 fold over background.

B9 returned an FOB of 1.5 fold over background.

B10 showed an FOB of 1.3 fold over background.

In a further experiment the target is T2, mouse SIRPα on cells. As to the kind of experiment: flow cytometry.
Consider B1, for which the FOB worked out at 1.4 fold over background.

B2 yielded an FOB of 1.1 fold over background.

Regarding B3, the FOB stood at 0.9 fold over background.

B4 yielded an FOB of 0.9 fold over background.

B5 had an FOB of 1.3 fold over background.

For B6, the FOB is 1.4 fold over background.

In the case of B7, the FOB was 1.1 fold over background.

As to B8, the FOB was found to be 1.2 fold over background.

In turn, B9 gave an FOB of 1 fold over background.

For the molecule B10, the FOB stood at 1.2 fold over background.

A further experiment deals with T5, human SIRPα on cells (human, UniProt P78324 31-504).
T5 construct: Whole entry
Description: flow cytometry.
As to B1, the FOB turned out to be 2 fold over background.

The molecule B2 returned an FOB of 2.5 fold over background.

The molecule B3 showed an FOB of 2.4 fold over background.

As to B4, the FOB worked out at 1.9 fold over background.

The molecule B5 registered an FOB of 2.5 fold over background.

As to B6, the FOB worked out at 1.9 fold over background.

Consider B7, for which the FOB was 2.4 fold over background.

As for B8, the FOB worked out at 2.1 fold over background.

B9 registered an FOB of 2 fold over background.

The molecule B10 returned an FOB of 2.2 fold over background.

The next experiment concerns the target T1, mouse SIRPβ1 on CHO cells. Description: flow cytometry. The source holds these as a separate data set.
Take B1: the binding result is recorded as “no binding (tested: 1 ug/ml)”.

For B2, the binding result is “no binding (tested: 1 ug/ml)”.

Consider B3, for which the binding result is “no binding (tested: 1 ug/ml)”.

Consider B4, for which the binding result is on record as “no binding (tested: 1 ug/ml)”.

As to B5, the binding result is “no binding (tested: 1 ug/ml)”.

Take B6: the binding result is reported as “no binding (tested: 1 ug/ml)”.

Regarding B7, the binding result is “no binding (tested: 1 ug/ml)”.

With B8, the binding result was “no binding (tested: 1 ug/ml)”.

As to B9, the binding result is recorded as “no binding (tested: 1 ug/ml)”.

B10: the binding result is given as “no binding (tested: 1 ug/ml)”.

The target of the next experiment is T2, mouse SIRPα on cells. Description: flow cytometry. This is another data set of the same source.
Regarding B1, the binding result is reported as “no binding (tested: 1 ug/ml)”.

B2: the binding result is recorded as “no binding (tested: 1 ug/ml)”.

Turning to B3, the binding result is given as “no binding (tested: 1 ug/ml)”.

As for B4, the binding result is “no binding (tested: 1 ug/ml)”.

Turning to B5, the binding result is “no binding (tested: 1 ug/ml)”.

Regarding B6, the binding result is reported as “no binding (tested: 1 ug/ml)”.

Take B7: the binding result is reported as “no binding (tested: 1 ug/ml)”.

For the molecule B8, the binding result is given as “no binding (tested: 1 ug/ml)”.

In the case of B9, the binding result is recorded as “no binding (tested: 1 ug/ml)”.

In the case of B10, the binding result was “no binding (tested: 1 ug/ml)”.

The target of the next experiment is T5, human SIRPα on cells. As to the kind of experiment: flow cytometry. This is another data set of the same source.
In the case of B1, the binding result is “no binding (tested: 1 ug/ml)”.

Regarding B2, the binding result is reported as “no binding (tested: 1 ug/ml)”.

In the case of B3, the binding result is given as “no binding (tested: 1 ug/ml)”.

B4: the binding result is “no binding (tested: 1 ug/ml)”.

For B5, the binding result is listed as “no binding (tested: 1 ug/ml)”.

On to B6, for which the binding result is recorded as “no binding (tested: 1 ug/ml)”.

Turning to B7, the binding result was “no binding (tested: 1 ug/ml)”.

In the case of B9, the binding result is “no binding (tested: 1 ug/ml)”.

On to B10, for which the binding result was “no binding (tested: 1 ug/ml)”.

A further experiment has as its target T3, mouse SIRPα D1-Fc. As to the kind of experiment: Octet. In general terms: Biolayer interferometry detects binding as a change in optical thickness at a sensor tip.
For B1, the binding result is listed as “no binding (tested: 100 nM)”.

For B2, the binding result was “no binding (tested: 100 nM)”.

Consider B3, for which the binding result is reported as “no binding (tested: 100 nM)”.

Turning to B4, the binding result was “no binding (tested: 100 nM)”.

Regarding B5, the binding result is “no binding (tested: 100 nM)”.

Turning to B6, the binding result is listed as “no binding (tested: 100 nM)”.

B7: the binding result is “no binding (tested: 100 nM)”.

Turning to B8, the binding result is listed as “no binding (tested: 100 nM)”.

As for B9, the binding result is “no binding (tested: 100 nM)”.

On to B10, for which the binding result is recorded as “no binding (tested: 100 nM)”.

A further experiment addresses T6, human SIRPα domain 1 (D1) Fc fusion (human, UniProt P78324 32-149).
T6 construct: also called human SIRPα D1-Fc; Human SIRPα Fc; not shown: C-terminal human IgG1 Fc
Description: Octet.
In the case of B1, the binding result is “no binding (tested: 100 nM)”.

For the molecule B2, the binding result is listed as “no binding (tested: 100 nM)”.

Take B3: the binding result is recorded as “no binding (tested: 100 nM)”.

Turning to B4, the binding result was “no binding (tested: 100 nM)”.

As to B5, the binding result is “no binding (tested: 100 nM)”.

For the molecule B6, the binding result is on record as “no binding (tested: 100 nM)”.

For the molecule B7, the binding result was “no binding (tested: 100 nM)”.

For B9, the binding result was “no binding (tested: 100 nM)”.

Regarding B10, the binding result is given as “no binding (tested: 100 nM)”.
